Results published in patent EP4209511A1.
Where a chain is given by its changes, count along the chain named. One block for each binder: values may come before it.

Tests used:
[1] = molecular target: T1, human CD84 on cells (human) (UniProt Q9UIB8); assay: flow cytometry, hybridoma supernatant at equal antibody concentration, monocytes
T1 sequence (looked up): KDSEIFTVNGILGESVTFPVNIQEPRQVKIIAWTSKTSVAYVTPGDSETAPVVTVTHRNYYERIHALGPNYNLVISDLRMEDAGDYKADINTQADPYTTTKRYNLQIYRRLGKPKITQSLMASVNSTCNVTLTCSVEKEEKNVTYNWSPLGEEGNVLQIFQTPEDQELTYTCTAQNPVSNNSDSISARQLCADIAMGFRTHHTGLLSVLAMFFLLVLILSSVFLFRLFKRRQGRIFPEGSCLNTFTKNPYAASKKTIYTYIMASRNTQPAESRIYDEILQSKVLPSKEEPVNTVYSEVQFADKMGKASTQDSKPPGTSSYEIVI

[2] = molecular target: T1, human CD84 on cells (human); assay: flow cytometry, hybridoma supernatant at equal antibody concentration, Raji cells
[3] = molecular target: T1, human CD84 on cells (human); assay: flow cytometry, hybridoma supernatant at equal antibody concentration, Ramos cells
[4] = molecular target: T1, human CD84 on cells (human); assay: flow cytometry, hybridoma supernatant at equal antibody concentration, lymphocytes
[5] = molecular target: T1, human CD84 on cells (human); assay: flow cytometry, hybridoma supernatant at equal antibody concentration, 300.19-CD84+ cells
[6] = molecular target: T2, Human CD84 produced by mammalian cells (human) (UniProt Q9UIB8); assay: monoclonal phage ELISA, plate coated with CD84 antigen, anti-phage HRP antibody
T2 sequence (looked up): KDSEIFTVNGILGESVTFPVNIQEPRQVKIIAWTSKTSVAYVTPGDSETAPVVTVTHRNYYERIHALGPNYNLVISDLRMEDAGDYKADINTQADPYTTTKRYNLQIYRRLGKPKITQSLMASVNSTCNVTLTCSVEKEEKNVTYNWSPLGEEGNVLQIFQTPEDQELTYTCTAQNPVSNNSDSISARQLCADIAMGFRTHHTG

B2: GYCD84.1-207 (antibody, mouse IgG1, V domains shown)
VH: EVKLLESGGGLVQPGGSLKLSCAASGFDFSRYWMSWVRQAPGKGLEWIGEINPDSSTINYTPSLKDKFIISRDNAKNTLYLQMSKVRSEDTALYYCARPGPTVVATYWYFDVWGAGTTVTVSS
VL: DVLMTQTPLSLPVSLGDQASISCRSSQSIVHSNGNTYLEWYLQKPGQSPKLLIYKVSSRFSGVPDRFSGSASGTDFTLKISRVEAEDLGVYYCFQGSHVPRTFGGGTKLEIK
300.19-CD84 binding [5]: 94.2%

B5: GYCD84.1-7 (antibody, mouse IgG1, V domains shown)
VH: QVTLKESGPGILQPSQTLSLTCSFSGFSLSTSGMGVGWIRQPSGKGLEWLAHIWWDDVKRYNPALKSRLTISKDTSSSQVFLKIASVDTADTATYYCARMRTSYYFDYWGQGTTLTVSS
VL: DIQMTQSPASLSASVGETVTITCRASENIFSSLAWYQQRQGKSPQLLVYNAKTLAEGVPSRFSGSGSGTQFSLKINSLQPEDFGSYYCQHHYATPFTFGSGTKLEIK
Monocyte binding [1]: 64.4%
Raji binding [2]: 91.4%
Ramos binding [3]: 59%
Lymphocyte binding [4]: 19%
300.19-CD84 binding [5]: 92.6%

B7: R3-H3 (scFv)
scFv: EVQLVESGGGLVQPGGSLRLSCAASGFTFSDNAMSWVRQAPGKGLEWVSAISGTGRTTYYADSVKGRFTISRDNSKNTLYLQMNSLRAEDTAVYYCAKWDCSDGRCYWAYWGQGTLVTVSSGGGGSGGGGSGGGGSGGGGASEIVLTQSPLSLPVTLGQPASISCRSSQSLVYSDGDTYLNWFQQRPGQSPRRLIYKVSNRDSGVPDRFSGSGSGTDFTLKISRVEAEDVGVYYCMQGTHWPPNTFGQGTRLEIK
ELISA signal on antigen (Ag), read at 450 nm (absorbance at 450 nm) [6]: 0.696

B8: 152-1D5 (antibody, mouse IgG1, V domains shown)
VH: QVQLQQPGAEVVQPGTSVKLSCKASGYNFTNYWINWVKLRPGQGLEWIGDIYPVSGTTNYNEKFKRKATLTVDTSSSTGNMQLSSLASEDSALYYCASGTGRFAYWGQGTLVTVSA
VL: DIVLTQSPASLAVSLGQRATISCRASQSVSTSSYSYMHWYQQKPGQPPKLLIKFASNLESGVPARFSGSGSGTDFTLNIHPVEEEDTATYYCQHSWEIPYTFGGGTKLEIK
Monocyte binding [1]: 72%
Raji binding [2]: 97.6%
Ramos binding [3]: 73.4%
Lymphocyte binding [4]: 24.4%
300.19-CD84 binding [5]: 92.5%

B9: GYCD84.1-226 (antibody, mouse IgG1, V domains shown)
VH: QVQLQQPGAELVKPGTSVKLSCKASGYNFTRYWINWVKLRPGQGLEWIGDIYPGSGSTNYNEKFKSKATLTVDTSSSTAYMQLSRLASEDSALYYCARDTTIAYWGQGTLVTVSA
VL: B8 VL with A9T, S30T, S33R
Monocyte binding [1]: 76.1%
Raji binding [2]: 99.9%
Ramos binding [3]: 80.2%
Lymphocyte binding [4]: 28.7%
300.19-CD84 binding [5]: 98.1%

B10: GYCD84.1-97 (antibody, mouse IgG2a, V domains shown)
VH: QVQLQQPGAELVKPGTSVKLSCKASGYNFTSYWINWVKLRPGQGLEWIGDIYLGSGSTNYNEKFKSKATLTVDTSSSSAYMQLSSLVSEDSALYYCATSGGYLGYWGQGTTLTVSS
VL: B8 VL
300.19-CD84 binding [5]: 97.7%

B11: GYCD84.1-108 (antibody, mouse IgG2a, V domains shown)
VH: QVQLQQSGAELVRPGTSVKMSCKAAGYTFTNYWIGWVRQRPGHGLEWIGDIYPGGGYTNYNENFKGKATLTADTSSSTAYMQLSSLTSEDSAIYYCARSTTYYSSYWCFDVWGPGTTVTVSS
VL: DIVMTQSPSSLSVSAGEKVTMSCKSSQSLLNSGNQANYLAWYQQKPGQPPKLLINGASTRESGVPDRFTGSGSGTDFTLTISSVQAEDLAVYYCQNDHSYPFTFGSGTKLEIK
Monocyte binding [1]: 41.3%
Raji binding [2]: 30.3%
Ramos binding [3]: 31.2%
Lymphocyte binding [4]: 13.6%
300.19-CD84 binding [5]: 93.9%

B12: R3-G7 (scFv)
scFv: QVQLVESGGGVVQPGRSLRLSCTASGFTFSSYPMHWVRQAPGKGLEWVAAISYHGRNKFYADSVKGRFTISRDDLRSTLYLQMNNLKADDTAVYSCARDRDATPGGTGVGNHGMAVWGQGTTVTVSSGGGGSGGGGSGGGGSGGGGASEIVLTQSPLSLPVTPGEPASISCKSSQSLLHSSGYNYLDWYLQKPGQSPQLLIHMGSNRASGVPARFSGSGSGTDFTLRISRVEAEDVGVYYCMQGLQTPPTFGGGTKLEIK
ELISA signal on antigen (Ag), read at 450 nm (absorbance at 450 nm) [6]: 2.4

Next, values leading:

Monocyte binding [1]: 72.7%
Raji binding [2]: 99.1%
Ramos binding [3]: 91.3%
Lymphocyte binding [4]: 24.9%
300.19-CD84 binding [5]: 83%
B1: GYCD84.3.89 (antibody, mouse IgG1, V domains shown)
VH: EVKLLESGGGLVQPGGSLKLSCAASGFGFSRSWMSWVRQAPGKGLEWIGEINPDSSTINYTPSLKDKFIISRDNAKNTLFLQMSKVRSEDTALYYCATFYDGYSIYWYFDVWGAGTTVTVSS
VL: B2 VL with N35D, S58N, A71G

Monocyte binding [1]: 77.5%
Raji binding [2]: 97.5%
Ramos binding [3]: 66.3%
Lymphocyte binding [4]: 25.4%
300.19-CD84 binding [5]: 96.3%
B3: GYCD84.2.27 (antibody, mouse IgG1, V domains shown)
VH: B5 VH with S30T, T94S, R101S
VL: DIVMTQSHKFMSTSLGDRVSISCKASQSLFTSVAWYQQKPGQSPKLLIYSASYRYTGVPDRFTGSGSGTDFTFTISSVQAEDLAVYYCQQHYSSPFTFGSGTKLGIK

Monocyte binding [1]: 78.2%
Raji binding [2]: 99.5%
Ramos binding [3]: 78.6%
Lymphocyte binding [4]: 28.7%
300.19-CD84 binding [5]: 99%
B4: GYCD84.2.32 (antibody, mouse IgG1, V domains shown)
VH: EVQLQQSGPELEKPGASVKISCKASGYSFTGYNMNWVKQSNGKSLEWIGNIDPYYGGTNYNQKFKGKATLTVDKSSSTAYMQLKSLTSEDSAVYYCARGLLSGSFPYWGQGTLVTVSA
VL: B5 VL with F30Y, S32Y, R39K, Q79H, Y87F, A93G, T94S, F96L, S100A, I106V

Monocyte binding [1]: 53.9%
Raji binding [2]: 45.9%
Ramos binding [3]: 28.3%
Lymphocyte binding [4]: 16.6%
300.19-CD84 binding [5]: 93.5%
B6: GYCD84.3.298 (antibody, mouse IgG1, V domains shown)
VH: B5 VH with K66R, K83N, A98T, M100I, R101A, T102V, S103T, Y105F, Y108F
VL: DIQMTQSPASLSASVGETVTITCRASENIFSSFAWYQQKRGRSPQLLVYNARTLAEGVPSRFSGSGSGTQFSLKINSLQPEDFGTYFCQHHYASPFTFGSGTELGVK

Monocyte binding [1]: 64.8%
Raji binding [2]: 73.9%
Ramos binding [3]: 35.1%
Lymphocyte binding [4]: 26.8%
300.19-CD84 binding [5]: 93.2%
B13: GYCD84.5.171 (antibody, mouse IgG1, V domains shown)
VH: EVQLVESGGGLVQPKGSLKLACAASGFTFNIYAMNWVRQAPGKGLEWVARIRSKSNNYARFYADSVKDRFTISRDDSQSMLYLQMNNLKTEDTAMYYCVRPLRSYFSMDYWGQGTSVTVSS
VL: SIVMTQSPKSMSMSVGERVTLSCKASENVDTYVSWYQQKPEQSPKLLIYGASNRYTGVPDRFTGSGSATDFTLTISSVKAEDLADYHCGQTYSYPWTFGGGTKLEIK
